Data as given in patent US6881404.

Target: T1, P-selectin glycoprotein ligand-1 (UniProt Q14242)
T1 sequence: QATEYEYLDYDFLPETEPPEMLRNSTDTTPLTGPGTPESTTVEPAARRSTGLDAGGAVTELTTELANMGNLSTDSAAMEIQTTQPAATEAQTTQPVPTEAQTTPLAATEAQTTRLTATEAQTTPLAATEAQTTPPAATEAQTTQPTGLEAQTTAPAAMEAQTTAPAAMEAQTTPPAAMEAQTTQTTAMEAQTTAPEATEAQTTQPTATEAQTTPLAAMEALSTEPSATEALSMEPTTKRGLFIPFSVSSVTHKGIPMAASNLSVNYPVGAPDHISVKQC

mocarhagin purified from the venom of the Mozambiquan spitting cobra, Naja mossambica mossambica
proteolytic cleavage of PSGL-1: Mocarhagin cleaves a ten amino acid peptide from the mature N-terminus of PSGL-1 and abolishes the ability of PSGL-1 to bind P-selectin
